Measured values published in patent US20140322163A1 (published 2014).

B1: G54A (heavy chain) (antibody, V domains shown)
VH: QVQLVQSGGQMKKPGESMRISCRASGYEFIDCTLNWIRLAPGKRPEWMGWLKPRAGAVNYARPLQGRVTMTRDVYSDTAFLELRSLTVDDTAVYFCTRGKNCDYNWDFEHWGRGTPVIVSS
VL: EIVLTQSPGTLSLSPGETAIISCRTSQYGSLAWYQQRPGQAPRLVIYSGSTRAAGIPDRFSGSRWGPDYNLTISNLESGDFGVYYCQQYEFFGQGTKVQVDI
B2: V3A (light chain) (antibody, V domains shown)
VH: QVQLVQSGGQMKKPGESMRISCRASGYEFIDCTLNWIRLAPGKRPEWMGWLKPRGGAVNYARPLQGRVTMTRDVYSDTAFLELRSLTVDDTAVYFCTRGKNCDYNWDFEHWGRGTPVIVSS
VL: EIALTQSPGTLSLSPGETAIISCRTSQYGSLAWYQQRPGQAPRLVIYSGSTRAAGIPDRFSGSRWGPDYNLTISNLESGDFGVYYCQQYEFFGQGTKVQVDI

Key:
Assay in all cases: BLI
YU2_FL = target: YU2_FL
RSC3 = target: RSC3
ZM109_FL = target: ZM109_FL

Row | Binder | Kd (YU2_FL) [nM] | Kd (RSC3) [nM] | Kd (ZM109_FL) [nM]
1 | B1 | 6.51 | 2.64 | 76
2 | B2 | 27.6 | 6.09 | 54.7
